Assay: Viscosity measurement of 11F1 formulations
Type: physicochemical
Settings: 10 mM sodium acetate
Protocol: Concentration determination was then carried out by measuring absorbance at A280 using an Agilent 8453 Spectrophotometer (Santa Clara, Calif.). Protein concentration was calculated using the appropriate extinction coefficient. The appropriate amount of buffer was then added to the sample to dilute it back down to the desired concentration and another A280 was performed to obtain the final concentration for the experiment. Excipients were added individually to the 11F1 formulations samples derived from the high concentration stock solutions.
Viscosity was measured using Brookfield LV-DVII cone and plate viscometer (Middleboro, Mass.) with a CPE-40 spindle with matching sample cup temperature regulated by a circulating water bath at constant 25° C. 500 μL of sample was added to sample cup with positive displacement pipettor. […] At this point the rotational speed was stopped and a viscosity reading was generated by Rheocalc software.
High concentration protein formulations were sometimes measured using a different type of viscometer, an Anton Paar Physica Model MCR300 with a CP50-1 spindle. A 600 uL sample is used in this instrument and Rheoplus software version 3.4 was use to calculate solution viscosity. There was not a large difference in measurements using either viscometer.

11F1: anti-PCSK9 ABP, light/heavy variable region SEQ ID NO 465/463 [Antibody 11F1]
Viscosity @ 25 C. (145 mg/mL, 9% Sucrose 0.01% PS 20, pH 5.2): 14 cP
Viscosity @ 25 C. (147 mg/mL, 150 mM Methionine, 3% Sucrose, 0.01% PS 20, pH 5.2): 13 cP
Viscosity @ 25 C. (170 mg/mL, 250 mM Praline, 0.01% PS 20, pH 5.0): 18 cP
Viscosity @ 25 C. (172 mg/mL, 9% Sucrose 0.01% PS 20, pH 5.2): 23 cP
Viscosity @ 25 C. (186 mg/mL, 9% Sucrose 0.01% PS 20, pH 5.2): 45 cP
Viscosity @ 25 C. (191 mg/mL, 9% Sucrose 0.01% PS 20, pH 5.2): 53 cP
Viscosity @ 25 C. (192 mg/mL, 150 mM Methionine, 3% Sucrose, 0.01% PS 20, pH 5.2): 31 cP
Viscosity @ 25 C. (196 mg/mL, 250 mM Praline, 0.01% PS 20, pH 5.0): 36 cP
Viscosity @ 25 C. (211 mg/mL, 9% Sucrose, 100 mM Arginine, pH 5.2): 26 cP
Viscosity @ 25 C. (211 mg/mL, 9% Sucrose, 150 mM Alanine, pH 5.2): 43 cP
Viscosity @ 25 C. (211 mg/mL, 9% Sucrose, 150 mM Glycine, pH 5.2): 45 cP
Viscosity @ 25 C. (211 mg/mL, 9% Sucrose, 150 mM Serine, pH 5.2): 48 cP
Viscosity @ 25 C. (211 mg/mL, 9% Sucrose, 150 mM sodium chloride, pH 5.2): 62 cP
Viscosity @ 25 C. (211 mg/mL, 9% Sucrose, pH 5.2): 73 cP
Viscosity @ 25 C. (211 mg/mL, pH 5.2): 58 cP
Viscosity @ 25 C. (212 mg/mL, 150 mM Methionine, 3% Sucrose, 0.01% PS 20, pH 5.2): 54 cP
Viscosity @ 25 C. (212 mg/mL, 250 mM Praline, 0.01% PS 20, pH 5.0): 47 cP
Viscosity @ 25 C. (224 mg/mL, 9% Sucrose 0.01% PS 20, pH 5.2): 133 cP
Viscosity @ 25 C. ([…], 150 mM Methionine, 3% Sucrose, 0.01% PS 20, pH 5.2): 18 cP
Viscosity @ 25 C. ([…], 9% Sucrose 0.01% PS 20, pH 5.2): 8 cP

From patent US12612465B2, “Formulations comprising PCSK9 specific monoclonal antibodies” (Amgen Inc., priority 2012, dated 2026)
